One molecule from US5635216A, “Microparticle compositions containing peptides, and methods for the preparation thereof” (Eli Lilly and Company, priority 1993, dated 1997) can be followed below.

Assay [1] deals with finishing swine. Kind of assay: Serum growth hormone levels in finishing swine after subcutaneous injection. Format: in vivo. The settings on record: b137 study, FIGS. 3 and 4; barrows, 3 micrograms/kg/day injected twice per day; all time periods for 15 days. The method, then:
(§1) The microparticles prepared in accordance with the previous examples were used to determine the effect of somatogenin (LY293404) concentration in different PLA/PGA microparticle concentrations. Payout characteristics were measured by urinary urea nitrogen excretion and serum growth hormone levels in finishing swine. The microparticle formulations were placed in suspension, using 2% W/V sodium carboxyl-methyl-cellulose 330 (NaCMC) in Nano-pure II purified water. The suspension was injected subcutaneously in the flank. […] Urinary nitrogen reduction is a measurement of growth hormone which is stimulated by somatogenin release from microparticles. […] The reduction was the greatest for the highest loaded (25%) microparticles, and lowest for the lowest (5%) loaded microparticles. […] The vertical bars in the figures represent the relative standard deviations. The microparticles prepared in accordance with the previous examples were used to determine the payout characteristics of somatogenin (LY293404) when administered in different PLA/PLG microparticle formulations as measured by urinary urea nitrogen excretion and serum growth hormone levels in finishing swine. The microparticle formulations were placed in suspension, using 2% W/V sodium carboxyl-methyl-cellulose 330 (NaCMC) in Nano-pure II purified water. The suspension was injected subcutaneously in the flank. […]

Assay [2] has as its system finishing swine. Nature of the assay: Urinary urea nitrogen excretion in finishing swine after subcutaneous injection. The note with it: b137 study, FIGS. 3 and 4; barrows, 3 micrograms/kg/day injected twice per day; all time periods for 15 days. Format: in vivo. The method, then: as §1

B1: 4-methylhippuroyl (1) porcine GHRH (2-76)--OH (peptide)
chain: GADAIFTNNYRRVLTQLSARRLLQDILSRQQGERNQEQGARVRLGRQVDSLWADQRQLALESILATLLQEHRNSQG
modifications: 4-methylhippuroyl N-terminus
notes: analog of a natural porcine GHRH prohormone
As for B1, the “serum GH levels” value in the assay with finishing swine [1] is on record as “elevation”. In the assay on finishing swine [2], the urinary urea excretion entry is recorded as “reduction”.
